Reference: US20210246218A1 (LYVGEN BIOPHARMA SUZHOU, published 2021)

Experiments:
[1] = biological target: T1, recombinant human CD137 receptor protein (human, UniProt Q07011 24-186); experiment: ELISA, clone 3712-IgG1v coated, huCD137 titrated (EC50 is a concentration of the CD137 protein); full sigmoid, plateau about 1.9
T1 construct: Coated on ELISA plates; also called recombinant human CD137 protein

[2] = biological target: T2, mouse CD137 on CHO cells (mouse, UniProt P20334 24-256); experiment: flow cytometry on CHO cells over-expressing the target
T2 construct: whole, on cells; also called murine cellular CD137
T2 sequence (P20334 24-256): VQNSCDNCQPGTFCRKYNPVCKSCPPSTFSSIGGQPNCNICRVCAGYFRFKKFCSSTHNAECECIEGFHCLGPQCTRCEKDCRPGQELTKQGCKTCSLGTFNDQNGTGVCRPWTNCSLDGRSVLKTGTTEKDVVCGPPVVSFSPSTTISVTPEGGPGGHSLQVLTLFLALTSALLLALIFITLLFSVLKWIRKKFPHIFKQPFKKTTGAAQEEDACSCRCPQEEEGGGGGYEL
Procedure: (§1) The cells were resuspended in ice cold assay buffer at 2*10\hat{ }6/mL and transferred to 96-well V-bottom plate with 100 μL/well. […] The plate was incubated in the dark for 2 hours at 4° C. The cells were washed 3 times by centrifugation at 1000 g for 3 min and resuspended in 100 μL ice cold assay buffer containing goat F(ab′)₂ anti-human IgG-Fc (PE) or PE goat anti-mouse IgG antibody. The plate was incubated in the dark for another 1 hour at 4° C. The cells were washed 2 times by centrifugation at 1000 g for 3 min and resuspended in ice cold assay buffer containing 2% PFA and analyzed on the flow cytometer immediately.

[3] = biological target: T3, human CD40 on CHO cells (human, UniProt P25942 21-277); experiment: as above
T3 construct: whole, on cells
T3 sequence (P25942 21-277): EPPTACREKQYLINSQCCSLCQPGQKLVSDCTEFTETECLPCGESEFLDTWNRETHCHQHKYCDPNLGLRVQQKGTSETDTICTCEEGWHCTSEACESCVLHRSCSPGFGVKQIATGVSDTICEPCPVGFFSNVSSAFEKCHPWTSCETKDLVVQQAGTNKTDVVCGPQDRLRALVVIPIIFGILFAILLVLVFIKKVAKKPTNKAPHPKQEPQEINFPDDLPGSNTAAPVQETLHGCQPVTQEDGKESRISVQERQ
Procedure: as §1

[4] = biological target: T4, human CD19 on CHO cells (human, UniProt P15391 20-556); experiment: as above
T4 construct: whole, on cells
T4 sequence (looked up): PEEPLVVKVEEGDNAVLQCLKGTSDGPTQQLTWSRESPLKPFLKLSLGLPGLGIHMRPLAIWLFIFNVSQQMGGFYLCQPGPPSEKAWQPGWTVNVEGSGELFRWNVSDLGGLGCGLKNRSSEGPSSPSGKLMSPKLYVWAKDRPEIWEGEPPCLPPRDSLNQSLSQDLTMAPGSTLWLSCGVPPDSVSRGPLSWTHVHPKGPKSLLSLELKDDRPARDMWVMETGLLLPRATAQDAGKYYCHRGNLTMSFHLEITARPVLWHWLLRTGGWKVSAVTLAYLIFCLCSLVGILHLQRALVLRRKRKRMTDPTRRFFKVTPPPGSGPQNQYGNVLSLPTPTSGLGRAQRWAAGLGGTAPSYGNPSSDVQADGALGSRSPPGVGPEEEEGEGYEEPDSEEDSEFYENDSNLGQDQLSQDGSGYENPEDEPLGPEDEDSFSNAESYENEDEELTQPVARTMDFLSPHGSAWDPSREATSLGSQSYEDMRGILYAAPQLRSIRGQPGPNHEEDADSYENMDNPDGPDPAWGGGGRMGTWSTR
Procedure: as §1

[5] = biological target: T5, human GITR on CHO cells (human, UniProt Q9Y5U5 26-241); experiment: as above
T5 construct: whole, on cells
T5 sequence (looked up): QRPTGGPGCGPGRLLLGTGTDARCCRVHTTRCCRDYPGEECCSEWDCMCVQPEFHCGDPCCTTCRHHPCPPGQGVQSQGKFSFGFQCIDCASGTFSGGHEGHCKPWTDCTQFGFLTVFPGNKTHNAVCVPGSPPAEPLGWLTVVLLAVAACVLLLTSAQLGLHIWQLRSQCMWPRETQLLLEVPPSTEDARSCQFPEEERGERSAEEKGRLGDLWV
Procedure: as §1

[6] = biological target: T6, human CD160 on CHO cells (human, UniProt O95971 25-159); experiment: as above
T6 construct: whole, on cells
T6 sequence (looked up): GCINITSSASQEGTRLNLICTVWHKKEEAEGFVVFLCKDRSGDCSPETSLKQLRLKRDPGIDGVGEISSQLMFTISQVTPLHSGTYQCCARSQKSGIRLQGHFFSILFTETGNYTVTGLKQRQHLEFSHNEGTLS
Procedure: as §1

[7] = biological target: T7, human BTLA on CHO cells (human, UniProt Q7Z6A9 31-289); experiment: as above
T7 construct: whole, on cells
Procedure: as §1

[8] = biological target: T8, human LTBR on CHO cells (human, UniProt P36941 31-435); experiment: as above
T8 construct: whole, on cells
T8 sequence (P36941 31-435): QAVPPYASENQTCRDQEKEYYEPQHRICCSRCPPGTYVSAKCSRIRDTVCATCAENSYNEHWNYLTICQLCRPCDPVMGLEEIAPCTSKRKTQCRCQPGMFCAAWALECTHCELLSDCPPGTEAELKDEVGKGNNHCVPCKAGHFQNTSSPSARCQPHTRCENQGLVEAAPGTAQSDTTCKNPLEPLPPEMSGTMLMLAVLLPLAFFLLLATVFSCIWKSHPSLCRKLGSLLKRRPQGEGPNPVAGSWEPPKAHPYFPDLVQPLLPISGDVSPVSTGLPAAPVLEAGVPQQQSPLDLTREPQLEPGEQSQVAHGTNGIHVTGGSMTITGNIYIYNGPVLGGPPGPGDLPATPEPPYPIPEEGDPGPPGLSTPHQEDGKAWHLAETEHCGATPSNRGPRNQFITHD
Procedure: as §1

[9] = biological target: T9, human PD-1 on CHO cells (human, UniProt Q15116 25-288); experiment: as above
T9 construct: whole, on cells
T9 sequence (Q15116 25-288): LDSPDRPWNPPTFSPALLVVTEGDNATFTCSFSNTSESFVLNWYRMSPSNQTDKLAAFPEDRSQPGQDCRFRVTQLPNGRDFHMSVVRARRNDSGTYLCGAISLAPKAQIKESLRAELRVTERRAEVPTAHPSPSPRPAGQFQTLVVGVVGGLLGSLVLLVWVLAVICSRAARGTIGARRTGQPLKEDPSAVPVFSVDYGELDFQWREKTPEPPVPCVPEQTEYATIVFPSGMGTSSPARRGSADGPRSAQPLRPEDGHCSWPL
Procedure: as §1

[10] = biological target: T10, human CD137 on cells (human, UniProt Q07011 24-255); experiment: flow cytometry on human PBMC pre-activated with anti-CD3, gate on CD8+ T cells (endogenous CD137)
T10 construct: whole, on cells; also called CHO-human CD137; CHO cells over-expressing human CD137
Procedure: To obtain activated T cells in human PBMC, a 24-well plate was coated with 300 μL DPBS containing 2 μg/mL AffiniPure goat anti-mouse IgG, Fcγ fragment specific at 4° C. overnight. The plate was washed 3 times with DPBS. The antibody OKT3 was added to the plate at 1 μg/mL, 100 μL/well. The plate was incubated at 37° C. for 1 hour. A freshly thawed vial of human PBMCs was transferred into a 50 mL tube containing 25 mL pre-warmed culture medium (RPMI1640 containing 10% FBS), and spun at 250 g for 10 min The cell pellet was resuspended in 2 mL complete culture medium (culture medium containing 50 uM 2-Me) and the cell density was adjusted to 3.3*10\hat{ }6 cells/mL in the complete culture medium and then 900 μL/well cell suspension was transferred to the plate. The culture was incubated at 37° C. with 5% CO₂ for about 48 hours. After the incubation, the cells were harvested and washed once with DPBS. The cell pellet was resuspended in cold assay buffer and the cell density was adjusted to 2*10\hat{ }6 cells/mL. 100 μL of the cell suspension was transferred to a 96-well v-bottom plate. […] The plate was incubated in the dark for 30 minutes at 4° C. […] After incubation in the dark for 5 minutes at 4° C., the cells were analyzed on the flow cytometer immediately.

[11] = biological target: T11, Ly050; experiment: ELISA, CD137 protein coated, clone 3712 titrated; full sigmoid, plateau about 1.9
T11 chain: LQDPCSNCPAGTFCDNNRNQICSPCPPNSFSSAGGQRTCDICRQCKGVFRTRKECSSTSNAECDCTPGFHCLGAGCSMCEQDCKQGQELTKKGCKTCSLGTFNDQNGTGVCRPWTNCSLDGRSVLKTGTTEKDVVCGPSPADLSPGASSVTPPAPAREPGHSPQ
Procedure: For the data shown in FIGS. 16C-D, chimeric CD137 receptor protein samples were diluted in DPBS to 5 μg/mL and then coated onto an ELISA plate (Corning, Catalog number: 9018, high binding) at 50 μL (0.25 μg) per well, and incubated at 4° C. overnight. The plate was decanted and washed once; assay diluent was added at 200 μL/well. After a 1-hour incubation at room temperature, the plate was washed with PBST one time. […] The plate was incubated 1 hour at room temperature and then washed three times with PBST. Goat anti-human IgG-H+L HRP-conjugated at 1:100,000 dilution or goat anti-mouse IgG (H+L) secondary antibody, HRP, 10 at 1:50,000 dilution was added to the plate at 100 μL/well. The plate was incubated 1 hour at room temperature followed by washing with PBST four times. The TMB substrate solution was added 100 μL/well. The color was permitted to develop for 15 minutes and then 100 μL/well 2N H2SO4 was added to terminate the reaction. Absorbance at 450 nm and 620 nm was determined by a Tecan F200 Pro reader.

T1 sequence (Q07011 24-186 limits assumed): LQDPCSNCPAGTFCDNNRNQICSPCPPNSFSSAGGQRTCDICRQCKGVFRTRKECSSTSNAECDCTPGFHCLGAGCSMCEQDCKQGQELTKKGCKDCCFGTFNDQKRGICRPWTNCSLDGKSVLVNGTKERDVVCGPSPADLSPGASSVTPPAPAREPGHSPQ

B1: Clone 3712-IgG1v (IgG1v/kappa) (antibody)
heavy: QVQLVQSGAEVKKPGASVKVSCKASGYTFAGFEMHWVRQAPGQGLEWMGAIDPKTGGTDYNQKFKDRVTMTRDTSISTAYMELSRLRSDDTAVYYCARDLGYFDVWGQGTLVTVSSASTKGPSVFPLAPSSKSTSGGTAALGCLVKDYFPEPVTVSWNSGALTSGVHTFPAVLQSSGLYSLSSVVTVPSSSLGTQTYICNVNHKPSNTKVDKKVEPKSCDKTHTCPPCPAPELLGPSVFLFPPKPKDTLMISRTPEVTCVVVDVEHEDPEVKFNWYVDGVEVHNAKTKPREEQYNSTYRVVSVLTVLHQDWLNGKEYKCKVSNKALPAPIEKTISKAKGQPREPQVYTLPPSREEMTKNQVSLTCLVKGFYPSDIAVEWESNGQPENNYKTTPPVLDSDGSFFLYSKLTVDKSRWQQGNVFSCSVMHEALHNHYTQKSLSLSPGK
light: DIQMTQSPSSLSASVGDRVTITCRASQDIRSNLNWYQQKPGGAVKLLIYYTSRLHSGVPSRFSGSGSGTDYTLTISSLQPEDFATYFCQQSEKLPRTFGGGTKVEIRRTVAAPSVFIFPPSDEQLKSGTASVVCLLNNFYPREAKVQWKVDNALQSGNSQESVTEQDSKDSTYSLSSTLTLSKADYEKHKVYACEVTHQGLSSPVTKSFNRGEC
notes: copies: 2 + 2
EC50 [1]: 0.0562 µg/mL
binding result [2]: no binding
binding result [3]: no binding
binding result [4]: no binding
binding result [5]: no binding
binding result [6]: no binding
binding result [7]: no binding
binding result [8]: no binding
binding result [9]: no binding
EC50 (read off the curve) [10]: ~0.03 µg/mL
EC50 [11]: 0.0722 µg/mL
